We go through nine substances from patent publication US20210338838A1.

Assay [1] addresses C3b (complement component 3b) (UniProt P01024). The assay is described as follows: relative C3b-binding assay, detection antibody AbCam OX-24 (#Ab112197).
Assay [2] shares this target. Put plainly: relative C3b-binding assay, percent of CFH-Risk, detection antibody AbCam OX-24 (#Ab112197).
For assay [3] the target is unchanged. The assay is described as follows: cell-based or functional assay.
The target is the same in assay [4]. The assay is described as follows: plate-based binding assay, His-tagged recombinant protein from HEK293 cells.
Assay [5] has the same target. The assay is described as follows: rank of binding affinity among six proteins, plate-based binding assays.

Sequence of protective CFHT-I62-Y402 (truncated complement factor H ending in SFTL) (P08603 other isoform, or with tags, fused parts or gaps): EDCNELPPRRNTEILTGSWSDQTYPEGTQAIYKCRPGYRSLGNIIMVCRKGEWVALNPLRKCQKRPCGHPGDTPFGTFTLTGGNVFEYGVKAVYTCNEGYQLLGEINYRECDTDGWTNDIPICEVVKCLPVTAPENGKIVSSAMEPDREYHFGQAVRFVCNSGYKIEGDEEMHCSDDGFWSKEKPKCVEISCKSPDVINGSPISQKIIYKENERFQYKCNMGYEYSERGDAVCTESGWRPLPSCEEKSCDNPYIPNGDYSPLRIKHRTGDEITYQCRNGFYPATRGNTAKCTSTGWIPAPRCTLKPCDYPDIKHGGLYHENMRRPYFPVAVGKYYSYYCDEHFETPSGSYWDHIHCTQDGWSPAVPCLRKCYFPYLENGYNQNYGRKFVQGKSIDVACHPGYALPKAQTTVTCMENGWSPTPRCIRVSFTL
Sequence of protective CFH-I62-Y402-E936 (full-length complement factor H) (P08603 19-1231 V62I): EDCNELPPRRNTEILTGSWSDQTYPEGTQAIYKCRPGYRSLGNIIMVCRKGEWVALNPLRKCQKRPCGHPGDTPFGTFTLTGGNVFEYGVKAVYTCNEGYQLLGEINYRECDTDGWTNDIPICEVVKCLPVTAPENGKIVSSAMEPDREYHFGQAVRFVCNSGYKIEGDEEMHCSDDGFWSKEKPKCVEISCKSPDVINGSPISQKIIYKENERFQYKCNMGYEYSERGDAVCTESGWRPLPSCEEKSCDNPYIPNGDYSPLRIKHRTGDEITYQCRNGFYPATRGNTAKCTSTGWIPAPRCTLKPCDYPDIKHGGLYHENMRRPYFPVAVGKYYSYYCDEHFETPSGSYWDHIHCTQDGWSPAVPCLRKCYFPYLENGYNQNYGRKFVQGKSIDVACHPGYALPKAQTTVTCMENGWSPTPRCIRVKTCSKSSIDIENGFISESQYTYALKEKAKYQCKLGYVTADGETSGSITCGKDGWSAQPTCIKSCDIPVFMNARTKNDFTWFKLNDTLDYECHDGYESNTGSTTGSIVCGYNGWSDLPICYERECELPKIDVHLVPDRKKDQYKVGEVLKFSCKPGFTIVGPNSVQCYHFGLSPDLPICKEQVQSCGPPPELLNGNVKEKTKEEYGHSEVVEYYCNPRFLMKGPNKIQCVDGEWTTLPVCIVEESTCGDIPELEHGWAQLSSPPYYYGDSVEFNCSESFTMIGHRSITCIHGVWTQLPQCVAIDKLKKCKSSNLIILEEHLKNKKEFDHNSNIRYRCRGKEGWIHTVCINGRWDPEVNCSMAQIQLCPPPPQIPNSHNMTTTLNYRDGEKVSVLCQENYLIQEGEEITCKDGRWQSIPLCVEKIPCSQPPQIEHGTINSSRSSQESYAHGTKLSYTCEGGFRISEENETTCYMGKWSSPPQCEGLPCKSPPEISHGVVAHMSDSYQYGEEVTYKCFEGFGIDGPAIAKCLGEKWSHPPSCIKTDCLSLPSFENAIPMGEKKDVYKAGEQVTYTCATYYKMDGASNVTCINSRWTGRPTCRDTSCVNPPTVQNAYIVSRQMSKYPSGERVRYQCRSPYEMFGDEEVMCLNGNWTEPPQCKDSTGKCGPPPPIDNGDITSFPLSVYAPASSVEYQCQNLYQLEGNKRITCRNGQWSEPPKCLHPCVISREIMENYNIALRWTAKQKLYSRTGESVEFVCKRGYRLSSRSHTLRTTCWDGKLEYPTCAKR
Sequence of CFHT-Neu/Del (truncated CFH of the neutral and deletion haplotypes, V62-Y402) (P08603 other isoform, or with tags, fused parts or gaps): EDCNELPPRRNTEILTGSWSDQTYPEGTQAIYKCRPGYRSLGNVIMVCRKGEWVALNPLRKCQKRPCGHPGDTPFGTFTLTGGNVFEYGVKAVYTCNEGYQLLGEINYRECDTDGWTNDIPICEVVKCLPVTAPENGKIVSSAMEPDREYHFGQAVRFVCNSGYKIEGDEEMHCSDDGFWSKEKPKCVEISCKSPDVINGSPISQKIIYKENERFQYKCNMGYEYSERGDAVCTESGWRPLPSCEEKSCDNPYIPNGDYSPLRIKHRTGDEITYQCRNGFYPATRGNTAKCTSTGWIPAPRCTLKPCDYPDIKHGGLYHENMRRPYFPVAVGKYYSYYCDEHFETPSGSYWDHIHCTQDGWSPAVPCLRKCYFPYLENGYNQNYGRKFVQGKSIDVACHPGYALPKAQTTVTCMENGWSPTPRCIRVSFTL
Sequence of CFH-Del (CFH of the CFHR3/1 deletion haplotype, V62-Y402-E936) (P08603 19-1231, stated change not applied): as the sequence (P08603 19-1231 V62I) above, with I44V counted along it

Consider “protective CFH-I62-Y402-E936 (full-length complement factor H) (from UniProt P08603 19-1231)”, for which the Binding Potential in assay [1] came to 29. The same substance had a % FH-Risk in assay [2] of 133%. This substance also returned a Cofactor (IC50 value for iC3b 43-kDa band appearance) in assay [3] of 9.2 nM. In assay [4], the Kd turned out to be 141 nM. This substance displayed a Binding Affinity Rank (1 best to 6 worst) in assay [5] of 1 rank.

On to “CFH-Neu (neutral variant of full-length CFH, V62-Y402-D936) (from UniProt P08603 19-1231)”, for which the Binding Potential in assay [1] came out at 29. Also, in assay [2], the % FH-Risk came out at 134%.

Regarding “CFHT-V62-H402 (risk variant of truncated CFH) (from UniProt P08603 19-445)”, the Binding Potential in assay [1] was 2. Further, in assay [2], the % FH-Risk was determined as 10%. The substance also registered a Binding Affinity Rank (1 best to 6 worst) in assay [5] of 5 rank.

In the case of “eCFHT-SK (engineered truncated CFH, I62-Y402, ending in SKSFTL) (from UniProt P08603 19-445)”, the Cofactor (IC50 value for iC3b 43-kDa band appearance) in assay [3] is 37 nM. Further, the Kd in assay [4] amounted to 478 nM. This substance showed a Binding Affinity Rank (1 best to 6 worst) in assay [5] of 3 rank.

“CFH-Del (CFH of the CFHR3/1 deletion haplotype, V62-Y402-E936) (from UniProt P08603 19-1231)” returned a Binding Potential in assay [1] of 24. This substance had a % FH-Risk in assay [2] of 107%.

“protective CFHT-I62-Y402 (truncated complement factor H ending in SFTL) (from UniProt P08603 19-445)”: the Binding Potential in assay [1] was found to be 4. Also, the % FH-Risk in assay [2] was found to be 17%. Also, the Cofactor (IC50 value for iC3b 43-kDa band appearance) in assay [3] was determined as 31.2 nM. In addition, in assay [4], the Kd was 717 nM. In assay [5], this substance returned a Binding Affinity Rank (1 best to 6 worst) of 4 rank.

Turning to “CFHT-Neu/Del (truncated CFH of the neutral and deletion haplotypes, V62-Y402) (from UniProt P08603 19-445)”, in assay [1], the Binding Potential turned out to be 3. Moreover, the % FH-Risk in assay [2] was found to be 15%.

Take “CFH-V62-H402-E936 (risk variant of full-length CFH) (from UniProt P08603 19-1231)”: the Binding Potential in assay [1] amounted to 22. Further, the % FH-Risk in assay [2] worked out at 100%. This substance had a Binding Affinity Rank (1 best to 6 worst) in assay [5] of 2 rank.

In turn, “eCFHT-SE (engineered truncated CFH, I62-Y402, ending in SESFTL) (from UniProt P08603 19-445)” yielded a Cofactor (IC50 value for iC3b 43-kDa band appearance) in assay [3] of 89.7 nM. Besides, the Kd in assay [4] was found to be 938 nM. The substance further returned a Binding Affinity Rank (1 best to 6 worst) in assay [5] of 6 rank.

For orientation: Kd means the equilibrium constant for the complex coming apart.
